From the supplement of paper PMC10065799, “High-throughput profiling of sequence recognition by tyrosine kinases and SH2 domains using bacterial peptide display” (eLife, 2023)

Legend:
Fyn = Fyn (UniProt P06241); assay: phosphorylation enrichment, bacterial display (enrichment ratio); higher = better substrate or ligand; peptides without Tyr show the background
FGFR3 = FGFR3 (UniProt P22607); assay: as above
EPHB2 = EPHB2 (UniProt P29323); assay: as above
AncSZ = assay: as above
c-Abl (mouse) = assay: as above
c-Src = assay: as above
Hck = Hck (UniProt P08631); assay: as above
Hck, sequence (P08631 whole entry, looked up): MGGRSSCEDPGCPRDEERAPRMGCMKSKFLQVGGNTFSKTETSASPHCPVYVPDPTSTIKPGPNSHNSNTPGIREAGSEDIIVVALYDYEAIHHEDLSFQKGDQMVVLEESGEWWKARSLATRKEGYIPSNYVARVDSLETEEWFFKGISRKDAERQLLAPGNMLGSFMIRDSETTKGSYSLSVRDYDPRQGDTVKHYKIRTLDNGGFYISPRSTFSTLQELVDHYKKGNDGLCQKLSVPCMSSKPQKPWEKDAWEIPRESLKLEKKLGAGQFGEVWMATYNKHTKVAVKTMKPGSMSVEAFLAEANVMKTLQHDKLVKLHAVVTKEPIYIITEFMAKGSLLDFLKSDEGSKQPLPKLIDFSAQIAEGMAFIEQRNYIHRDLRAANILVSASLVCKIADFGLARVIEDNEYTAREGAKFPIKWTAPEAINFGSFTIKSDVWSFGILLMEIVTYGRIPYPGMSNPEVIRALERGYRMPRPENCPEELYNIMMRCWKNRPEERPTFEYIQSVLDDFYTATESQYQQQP

EPHB1 = EPHB1 (UniProt P54762); assay: as above
EPHB1, sequence (P54762 whole entry, looked up): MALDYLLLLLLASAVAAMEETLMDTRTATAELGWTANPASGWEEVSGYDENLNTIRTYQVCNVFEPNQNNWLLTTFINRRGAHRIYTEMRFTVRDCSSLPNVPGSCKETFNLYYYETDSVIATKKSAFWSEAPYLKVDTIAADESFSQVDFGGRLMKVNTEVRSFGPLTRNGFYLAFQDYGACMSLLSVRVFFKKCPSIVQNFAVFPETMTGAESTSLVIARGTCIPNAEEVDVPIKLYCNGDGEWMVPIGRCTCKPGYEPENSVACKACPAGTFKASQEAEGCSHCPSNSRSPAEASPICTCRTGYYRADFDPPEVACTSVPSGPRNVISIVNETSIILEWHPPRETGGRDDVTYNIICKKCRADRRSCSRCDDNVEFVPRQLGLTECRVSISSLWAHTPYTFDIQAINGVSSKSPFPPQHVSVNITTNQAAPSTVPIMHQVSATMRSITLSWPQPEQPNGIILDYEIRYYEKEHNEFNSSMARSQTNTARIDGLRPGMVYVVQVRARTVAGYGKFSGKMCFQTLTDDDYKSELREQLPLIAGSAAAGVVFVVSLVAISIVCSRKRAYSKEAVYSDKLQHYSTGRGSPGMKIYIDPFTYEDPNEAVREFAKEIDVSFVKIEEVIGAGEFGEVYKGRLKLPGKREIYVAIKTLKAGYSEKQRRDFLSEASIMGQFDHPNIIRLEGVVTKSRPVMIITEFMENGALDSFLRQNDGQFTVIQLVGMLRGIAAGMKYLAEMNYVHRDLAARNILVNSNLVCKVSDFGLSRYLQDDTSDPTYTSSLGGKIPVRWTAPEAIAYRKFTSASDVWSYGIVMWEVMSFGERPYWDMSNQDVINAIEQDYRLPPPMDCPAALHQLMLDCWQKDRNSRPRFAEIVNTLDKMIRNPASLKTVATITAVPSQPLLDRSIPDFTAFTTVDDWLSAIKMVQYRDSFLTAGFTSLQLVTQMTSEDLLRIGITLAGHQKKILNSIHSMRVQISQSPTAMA

MERTK = MERTK (UniProt Q12866); assay: as above
FGFR1 = FGFR1 (UniProt P11362); assay: as above
Fes = Fes (UniProt P07332); assay: as above
Jak2 = Jak2 (UniProt O60674); assay: as above
Jak2, sequence (O60674 whole entry, looked up): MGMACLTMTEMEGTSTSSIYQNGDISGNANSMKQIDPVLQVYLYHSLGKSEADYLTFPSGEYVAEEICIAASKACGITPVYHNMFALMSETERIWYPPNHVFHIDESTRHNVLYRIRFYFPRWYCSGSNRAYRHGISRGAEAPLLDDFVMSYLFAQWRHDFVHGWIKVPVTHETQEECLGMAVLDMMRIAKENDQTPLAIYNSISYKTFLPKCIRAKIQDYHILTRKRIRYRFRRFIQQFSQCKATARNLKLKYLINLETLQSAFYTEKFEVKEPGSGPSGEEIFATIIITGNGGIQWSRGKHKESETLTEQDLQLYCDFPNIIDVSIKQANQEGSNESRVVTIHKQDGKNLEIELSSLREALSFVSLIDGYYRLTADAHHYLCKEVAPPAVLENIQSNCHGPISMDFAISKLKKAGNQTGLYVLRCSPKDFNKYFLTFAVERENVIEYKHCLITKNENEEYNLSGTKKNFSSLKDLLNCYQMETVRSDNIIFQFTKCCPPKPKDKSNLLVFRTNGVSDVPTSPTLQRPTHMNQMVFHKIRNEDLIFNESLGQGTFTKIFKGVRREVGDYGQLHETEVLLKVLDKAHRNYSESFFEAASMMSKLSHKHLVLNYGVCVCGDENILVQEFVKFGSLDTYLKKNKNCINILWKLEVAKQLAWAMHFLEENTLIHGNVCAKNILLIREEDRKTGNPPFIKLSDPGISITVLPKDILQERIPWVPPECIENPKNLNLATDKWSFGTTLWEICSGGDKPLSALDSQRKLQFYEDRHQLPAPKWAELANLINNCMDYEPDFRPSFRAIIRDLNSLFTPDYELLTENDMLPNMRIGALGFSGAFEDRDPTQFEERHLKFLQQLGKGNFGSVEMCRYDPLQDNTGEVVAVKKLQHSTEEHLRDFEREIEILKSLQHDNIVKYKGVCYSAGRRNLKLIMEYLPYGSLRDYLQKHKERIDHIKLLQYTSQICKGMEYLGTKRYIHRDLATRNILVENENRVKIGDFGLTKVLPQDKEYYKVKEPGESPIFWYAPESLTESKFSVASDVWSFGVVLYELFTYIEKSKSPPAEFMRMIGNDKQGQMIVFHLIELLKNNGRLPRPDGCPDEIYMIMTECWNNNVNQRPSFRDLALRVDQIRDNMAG

Fer (mouse) = assay: as above
c-Src SH2 = assay: SH2 binding enrichment of the phosphorylated peptide, bacterial display (enrichment ratio); higher = better substrate or ligand; peptides without Tyr show the background
Grb2 SH2 = Grb2 SH2 (UniProt P62993); assay: as above
SHP2-C SH2 = assay: as above
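For SH2 binding enrichment of the phosphorylated peptide, bacterial display in this document: peptide library displayed on the E. coli surface as eCPX fusions, selected cells deep-sequenced, score is each peptide's frequency after selection divided by its frequency in the input.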
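For phosphorylation enrichment, bacterial display in this document: 11-residue human phosphosite peptides and single-mutation variants displayed on the E. coli surface, counted by deep sequencing, each peptide's frequency after selection divided by its frequency in the unselected input library; frequency after pTyr selection over input frequency; kinase dosed for 20-30% of maximal phosphorylation in three min.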

Fyn, sequence (P06241 whole entry, looked up): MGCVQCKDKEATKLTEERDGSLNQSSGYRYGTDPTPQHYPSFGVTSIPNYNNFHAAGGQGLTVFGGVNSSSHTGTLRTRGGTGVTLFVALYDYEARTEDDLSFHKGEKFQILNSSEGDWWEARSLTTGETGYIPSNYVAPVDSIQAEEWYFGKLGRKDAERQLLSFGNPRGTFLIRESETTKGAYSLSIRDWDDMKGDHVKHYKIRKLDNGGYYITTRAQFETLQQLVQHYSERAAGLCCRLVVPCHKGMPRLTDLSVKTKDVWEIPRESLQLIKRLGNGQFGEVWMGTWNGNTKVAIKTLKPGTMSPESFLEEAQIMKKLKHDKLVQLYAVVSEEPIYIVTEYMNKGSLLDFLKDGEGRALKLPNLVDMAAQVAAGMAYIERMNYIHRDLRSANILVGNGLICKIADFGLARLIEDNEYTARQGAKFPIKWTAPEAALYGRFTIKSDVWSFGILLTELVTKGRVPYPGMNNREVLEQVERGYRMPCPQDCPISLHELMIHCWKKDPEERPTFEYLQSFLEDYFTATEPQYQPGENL
EPHB2, sequence (P29323 whole entry, looked up): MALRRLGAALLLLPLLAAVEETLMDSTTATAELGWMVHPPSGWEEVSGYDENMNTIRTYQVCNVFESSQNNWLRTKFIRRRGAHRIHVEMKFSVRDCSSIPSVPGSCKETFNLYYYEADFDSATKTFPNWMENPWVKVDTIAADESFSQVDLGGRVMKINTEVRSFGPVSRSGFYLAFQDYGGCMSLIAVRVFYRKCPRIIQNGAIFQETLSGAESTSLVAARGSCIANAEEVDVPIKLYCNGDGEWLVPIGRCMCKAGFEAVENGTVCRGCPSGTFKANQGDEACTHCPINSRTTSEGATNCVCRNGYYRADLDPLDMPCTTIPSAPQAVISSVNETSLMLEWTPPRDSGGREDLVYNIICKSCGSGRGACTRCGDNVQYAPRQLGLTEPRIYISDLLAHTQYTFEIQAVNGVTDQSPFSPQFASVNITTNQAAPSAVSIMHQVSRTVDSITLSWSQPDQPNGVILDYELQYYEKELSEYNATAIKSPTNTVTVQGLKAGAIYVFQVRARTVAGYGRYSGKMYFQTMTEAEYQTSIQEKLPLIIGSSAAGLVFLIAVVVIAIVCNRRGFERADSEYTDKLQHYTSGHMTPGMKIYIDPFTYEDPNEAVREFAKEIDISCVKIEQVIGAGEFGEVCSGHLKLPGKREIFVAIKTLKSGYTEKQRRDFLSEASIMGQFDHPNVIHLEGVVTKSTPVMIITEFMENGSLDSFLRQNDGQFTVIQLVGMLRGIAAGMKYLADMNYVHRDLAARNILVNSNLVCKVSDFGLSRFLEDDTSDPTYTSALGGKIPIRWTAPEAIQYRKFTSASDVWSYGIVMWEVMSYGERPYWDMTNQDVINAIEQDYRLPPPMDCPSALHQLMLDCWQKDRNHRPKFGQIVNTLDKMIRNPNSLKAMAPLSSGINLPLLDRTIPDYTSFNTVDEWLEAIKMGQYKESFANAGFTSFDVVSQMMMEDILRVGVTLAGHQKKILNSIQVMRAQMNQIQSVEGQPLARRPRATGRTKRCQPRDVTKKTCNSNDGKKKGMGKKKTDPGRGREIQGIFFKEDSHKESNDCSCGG
FGFR3, sequence (P22607 whole entry, looked up): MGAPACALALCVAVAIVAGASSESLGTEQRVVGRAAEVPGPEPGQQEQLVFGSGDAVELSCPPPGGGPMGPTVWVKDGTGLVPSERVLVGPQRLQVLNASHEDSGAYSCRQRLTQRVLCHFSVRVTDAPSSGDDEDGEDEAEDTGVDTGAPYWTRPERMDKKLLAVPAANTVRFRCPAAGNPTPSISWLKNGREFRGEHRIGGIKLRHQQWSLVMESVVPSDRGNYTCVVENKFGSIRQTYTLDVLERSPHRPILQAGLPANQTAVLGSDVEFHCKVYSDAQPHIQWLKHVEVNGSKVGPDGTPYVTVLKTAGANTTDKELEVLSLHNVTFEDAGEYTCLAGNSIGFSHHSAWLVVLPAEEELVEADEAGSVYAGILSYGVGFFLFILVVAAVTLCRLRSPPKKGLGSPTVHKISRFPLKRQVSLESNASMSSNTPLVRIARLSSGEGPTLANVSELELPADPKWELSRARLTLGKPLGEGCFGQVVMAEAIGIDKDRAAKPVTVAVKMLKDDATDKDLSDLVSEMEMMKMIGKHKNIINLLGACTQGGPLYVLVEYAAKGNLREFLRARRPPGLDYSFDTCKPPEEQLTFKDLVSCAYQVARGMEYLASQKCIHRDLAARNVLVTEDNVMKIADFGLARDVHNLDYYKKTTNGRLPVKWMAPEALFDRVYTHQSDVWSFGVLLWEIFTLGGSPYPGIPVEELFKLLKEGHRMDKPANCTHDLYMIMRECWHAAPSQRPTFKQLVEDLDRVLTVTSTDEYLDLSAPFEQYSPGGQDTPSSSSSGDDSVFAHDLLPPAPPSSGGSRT

SH2 binding enrichment (c-Src SH2) | SH2 binding enrichment (Grb2 SH2) | SH2 binding enrichment (SHP2-C SH2) | Sequence | phosphorylation enrichment (Fyn) | phosphorylation enrichment (FGFR3) | phosphorylation enrichment (EPHB2) | phosphorylation enrichment (AncSZ) | phosphorylation enrichment (c-Abl (mouse)) | phosphorylation enrichment (c-Src) | phosphorylation enrichment (Hck) | phosphorylation enrichment (EPHB1) | phosphorylation enrichment (MERTK) | phosphorylation enrichment (FGFR1) | phosphorylation enrichment (Fes) | phosphorylation enrichment (Jak2) | phosphorylation enrichment (Fer (mouse))
0.7 | 1.25 | 0.739 | QNTADYYDLYG [PTPN11_Y62_G60A] | 4.14 | 14.1 | 11.9 | 2.62 | 0.722 | 4.18 | 3.94 | 12.4 | 1.68 | 15.3 | 1.02 | 2.14 | 0.762
0.608 | 0.846 | 0.771 | SQINLYQDVML [ZNF806_Y33_A28S] | 0.965 | 1.06 | 5.9 | 1.02 | 0.752 | 0.934 | 1.6 | 13.2 | 1.81 | 1.01 | 2.48 | 0.847 | 13.9
0.337 | 0.755 | 0.386 | GCKKRYDKDKP [THAP1_Y14_N12K] | 0.396 | 0.703 | 0.534 | 0.833 | 0.621 | 0.531 | 0.452 | 0.449 | 0.6 | 0.506 | 0.702 | 0.529 | 0.445
0.414 | 0.85 | 0.787 | IVEFAYNDKAV [PUM3_Y259_I264V_YF] | 0.52 | 0.767 | 0.632 | 1.09 | 0.705 | 0.547 | 0.573 | 0.561 | 0.527 | 0.59 | 0.938 | 0.968 | 0.462
1.11 | 1.64 | 1.59 | LLNAIYLSAKR [SERPING1_Y294_W299R] | 0.86 | 0.963 | 0.846 | 1.58 | 1.61 | 1.09 | 1.36 | 0.659 | 0.947 | 0.617 | 1.43 | 1.65 | 0.85
0.589 | 1.02 | 1.07 | FSSLGYPLPEG [ZSWIM4_Y87_P89L_YF] | 0.446 | 0.472 | 0.446 | 0.747 | 0.501 | 0.42 | 0.525 | 0.372 | 0.519 | 0.413 | 0.722 | 0.635 | 0.394
0.569 | 1.08 | 0.934 | FLEEEYVKAVG [TF_Y674_G671E_YF] | 0.558 | 0.721 | 0.67 | 1.19 | 0.679 | 0.528 | 0.517 | 0.59 | 0.424 | 0.517 | 1.16 | 1.18 | 0.49
0.417 | 0.758 | 0.744 | IDSTPYRQWFE [RPS8_Y109_YF] | 0.302 | 0.551 | 0.464 | 0.739 | 0.665 | 0.368 | 0.442 | 0.487 | 0.357 | 0.494 | 0.856 | 0.855 | 0.406
0.407 | 0.711 | 0.61 | SQPASYQRRFL [PPIG_Y320_L324F] | 0.425 | 0.439 | 0.579 | 0.768 | 0.599 | 0.466 | 0.492 | 0.38 | 0.505 | 0.472 | 0.667 | 0.631 | 0.364
0.674 | 1.19 | 0.785 | AEPDIYQEKLS [USP54_Y1233] | 0.58 | 0.623 | 0.508 | 0.994 | 0.692 | 0.568 | 0.702 | 0.531 | 0.405 | 0.457 | 1.08 | 1.01 | 0.485
0.384 | 0.604 | 0.599 | GSIQQYTYKQE [PRG4_Y1271_I1272T] | 0.37 | 0.559 | 0.494 | 0.773 | 0.731 | 0.444 | 0.483 | 0.45 | 0.374 | 0.453 | 0.94 | 0.806 | 0.437
0.472 | 0.748 | 0.739 | LTFPDYLPCSV [SAG_Y129] | 0.427 | 3.07 | 0.601 | 2.34 | 1.13 | 0.535 | 0.479 | 0.879 | 0.463 | 3.74 | 1.44 | 2.91 | 0.715

The next lines start with the sequence.

Sequence | SH2 binding enrichment (c-Src SH2) | SH2 binding enrichment (Grb2 SH2) | SH2 binding enrichment (SHP2-C SH2) | phosphorylation enrichment (Fyn) | phosphorylation enrichment (FGFR3) | phosphorylation enrichment (EPHB2) | phosphorylation enrichment (AncSZ) | phosphorylation enrichment (c-Abl (mouse)) | phosphorylation enrichment (c-Src) | phosphorylation enrichment (Hck) | phosphorylation enrichment (EPHB1) | phosphorylation enrichment (MERTK) | phosphorylation enrichment (FGFR1) | phosphorylation enrichment (Fes) | phosphorylation enrichment (Jak2) | phosphorylation enrichment (Fer (mouse))
RSDEDYLFREE [POR_Y573_YF] | 0.477 | 0.847 | 0.642 | 0.768 | 1.34 | 0.964 | 1.47 | 1.31 | 0.836 | 0.983 | 0.865 | 0.592 | 0.914 | 2.36 | 1.66 | 0.891
CRAVKYLQMVD [AVPR2_Y117_G122D] | 0.532 | 0.798 | 0.755 | 0.503 | 0.585 | 0.456 | 0.71 | 0.535 | 0.318 | 0.456 | 0.508 | 0.354 | 0.427 | 0.922 | 0.675 | 0.419
MNPPPYSQLLS [FGF23_Y154_F157L] | 1.34 | 0.776 | 0.656 | 0.522 | 0.71 | 0.606 | 0.692 | 0.489 | 0.644 | 0.568 | 0.639 | 0.451 | 0.527 | 0.623 | 0.523 | 0.483
KSDVVYTDWKK [ORM1_Y175] | 0.505 | 0.757 | 0.885 | 1.55 | 0.609 | 0.513 | 0.856 | 1.4 | 1.65 | 4.84 | 0.44 | 0.559 | 0.558 | 1.02 | 0.648 | 0.592
ALCHYYKLNII [ETV6_Y402_R399C] | 0.855 | 0.895 | 1.34 | 0.798 | 5.13 | 0.738 | 1.59 | 2 | 1.54 | 1.09 | 0.97 | 2.26 | 5.97 | 1.62 | 3.3 | 0.615
RYVTRYIYNRE [HLA-DQB1_Y62] | 0.367 | 0.72 | 0.432 | 0.701 | 0.793 | 0.783 | 1.23 | 0.832 | 1.09 | 0.739 | 0.74 | 0.773 | 0.681 | 1.18 | 1.26 | 0.527
QELRRYLESGV [MICA_Y194_K196E] | 0.397 | 0.729 | 0.596 | 0.772 | 0.662 | 1.54 | 0.597 | 0.616 | 0.465 | 0.489 | 0.749 | 0.49 | 0.62 | 0.812 | 1.16 | 0.486
HLSPEYKQNEI [GJB1_Y243_R238H] | 0.611 | 0.905 | 0.683 | 0.594 | 0.728 | 1.33 | 0.966 | 0.716 | 0.532 | 0.614 | 0.68 | 0.676 | 0.857 | 1.07 | 0.874 | 0.418
TGTQLYGRFGS [ITGA2B_Y384] | 0.418 | 0.779 | 0.569 | 10.6 | 0.513 | 0.498 | 0.619 | 0.404 | 7.68 | 7.54 | 0.351 | 0.732 | 0.451 | 0.654 | 0.608 | 0.389
LLFRVYGLESL [INSR_Y94] | 0.588 | 0.718 | 0.734 | 0.752 | 1.4 | 0.828 | 1.88 | 1.15 | 0.565 | 0.465 | 0.96 | 0.792 | 0.542 | 1.76 | 1.77 | 0.757
PDNKPYIFKVF [PIK3AP1_Y553_E551K] | 0.568 | 1.08 | 1.03 | 0.665 | 0.831 | 0.919 | 1.37 | 0.79 | 0.526 | 0.619 | 0.752 | 0.428 | 0.681 | 1.75 | 1.03 | 0.728
TFVKSYTIHFS [F5_Y2153_M2148T_YF] | 0.537 | 0.97 | 0.729 | 0.468 | 0.899 | 0.468 | 1.04 | 0.873 | 0.447 | 0.424 | 0.599 | 0.434 | 0.517 | 1.29 | 1.28 | 0.521
LQTFHYHGHSM [PDHA1_Y289_R288H_YF] | 1.27 | 1.47 | 1.47 | 0.501 | 0.536 | 0.448 | 0.599 | 0.493 | 1.2 | 0.533 | 0.322 | 0.501 | 0.419 | 0.715 | 0.641 | 0.435
ILGRYYETGSI [PAX2_Y73] | 1.8 | 0.817 | 0.649 | 0.562 | 0.834 | 0.594 | 0.685 | 0.535 | 0.455 | 0.49 | 0.546 | 0.707 | 0.848 | 0.68 | 0.643 | 0.459
HILQLYRCREE [ALPK3_Y342_T338I] | 0.546 | 0.729 | 0.748 | 0.65 | 0.871 | 0.705 | 0.945 | 0.423 | 0.577 | 0.553 | 0.924 | 0.515 | 0.763 | 1.05 | 0.709 | 0.556
NSFKFYMSDDI [ATRX_Y204_C200S_YF] | 0.604 | 0.982 | 0.79 | 0.517 | 0.693 | 0.552 | 1.14 | 0.657 | 0.574 | 0.54 | 0.56 | 0.497 | 0.53 | 1.28 | 1.12 | 0.488
TTGGFYSYGGG [KRT24_Y120_A115T] | 0.945 | 0.773 | 0.778 | 2.56 | 0.664 | 1.1 | 1.03 | 0.692 | 1.25 | 2.39 | 1.18 | 13.9 | 0.528 | 1.04 | 0.763 | 4.54
KVMANYMYKAG [MAML2_Y513] | 0.849 | 1.16 | 1.06 | 0.404 | 0.512 | 0.533 | 0.617 | 0.54 | 0.296 | 0.461 | 0.505 | 0.33 | 0.529 | 0.836 | 0.49 | 0.388
EERNPYFSSAR [MCCC2_Y520_G517R_YF] | 0.446 | 0.859 | 0.789 | 0.475 | 0.404 | 0.392 | 0.769 | 0.624 | 1.08 | 0.659 | 0.466 | 0.407 | 0.486 | 0.752 | 0.779 | 0.36
REGDKYVSHGA [ASS1_Y113_A111D] | 0.407 | 0.623 | 1.01 | 0.505 | 0.58 | 0.622 | 0.938 | 0.873 | 0.643 | 0.61 | 0.794 | 0.744 | 0.731 | 1.03 | 0.83 | 0.486
QDIMAYRSREV [BCL6_Y157_G159S] | 0.42 | 0.699 | 0.955 | 0.323 | 0.664 | 0.343 | 0.569 | 0.745 | 0.513 | 0.314 | 0.456 | 0.398 | 0.285 | 0.746 | 0.759 | 0.196
